# Laboratory results reported in paper PMC10842940, “Establishment of dsDNA-dsDNA interactions by the condensin complex” (Molecular cell, 2023).
# T1: Cut14^Smc2 (fission yeast condensin SMC subunit) (S. pombe, UniProt P41003 1-1172)
# T1 construct: Cut14 (Smc2), S. pombe condensin SMC subunit; cDNA cloned into an S. cerevisiae expression vector; The Pk tag is used for the condensin immunoprecipitation in the DNA assays; also called Cut14-3xPk; source: S. cerevisiae (w303, pep4 deleted), co-overexpressed with the other four condensin subunits from GAL1-10 promoters; in cell extract, and purified as the complex (IgG-agarose, 3C protease …)
# T1 sequence (looked up): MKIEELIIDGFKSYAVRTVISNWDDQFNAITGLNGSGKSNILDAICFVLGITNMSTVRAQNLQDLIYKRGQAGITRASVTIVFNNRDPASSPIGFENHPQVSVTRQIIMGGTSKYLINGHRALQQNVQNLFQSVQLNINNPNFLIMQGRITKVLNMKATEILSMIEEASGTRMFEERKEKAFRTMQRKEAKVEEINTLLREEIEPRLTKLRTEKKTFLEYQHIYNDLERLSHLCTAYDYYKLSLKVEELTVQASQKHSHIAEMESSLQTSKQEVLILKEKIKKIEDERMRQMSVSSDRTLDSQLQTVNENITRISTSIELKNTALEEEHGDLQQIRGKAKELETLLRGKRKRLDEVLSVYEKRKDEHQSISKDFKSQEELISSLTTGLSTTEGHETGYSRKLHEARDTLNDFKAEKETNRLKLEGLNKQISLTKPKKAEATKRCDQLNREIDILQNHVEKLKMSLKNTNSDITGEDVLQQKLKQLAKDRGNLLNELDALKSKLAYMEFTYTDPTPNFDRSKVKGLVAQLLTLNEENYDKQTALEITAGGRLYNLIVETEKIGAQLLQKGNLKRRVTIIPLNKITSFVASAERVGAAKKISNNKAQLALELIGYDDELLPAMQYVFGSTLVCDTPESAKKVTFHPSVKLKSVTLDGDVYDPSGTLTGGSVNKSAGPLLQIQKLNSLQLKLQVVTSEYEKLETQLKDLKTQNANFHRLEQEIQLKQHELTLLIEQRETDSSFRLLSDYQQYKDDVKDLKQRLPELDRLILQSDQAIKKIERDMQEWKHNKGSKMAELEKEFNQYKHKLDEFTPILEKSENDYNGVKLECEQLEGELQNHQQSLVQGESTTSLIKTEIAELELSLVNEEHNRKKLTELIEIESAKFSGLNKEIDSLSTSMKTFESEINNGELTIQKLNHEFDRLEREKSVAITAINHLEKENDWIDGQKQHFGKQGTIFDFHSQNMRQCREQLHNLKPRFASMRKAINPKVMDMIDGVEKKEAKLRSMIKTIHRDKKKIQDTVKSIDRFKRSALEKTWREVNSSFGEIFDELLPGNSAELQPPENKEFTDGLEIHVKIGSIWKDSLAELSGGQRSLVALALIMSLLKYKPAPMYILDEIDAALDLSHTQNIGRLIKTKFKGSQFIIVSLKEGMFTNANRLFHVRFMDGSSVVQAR
# T2: Cnd1^Ycs4 (fission yeast condensin HEAT-repeat subunit) (S. pombe, UniProt O94679 1-1158)
# T2 construct: Cnd1 (Ycs4), S. pombe condensin HEAT-repeat subunit; cDNA cloned into an S. cerevisiae expression vector; source: S. cerevisiae (w303, pep4 deleted), co-overexpressed with the other four condensin subunits from GAL1-10 promoters; in cell extract, and purified as the complex (IgG-agarose, 3C protease elution, heparin, Superose 6)
# T2 sequence (looked up): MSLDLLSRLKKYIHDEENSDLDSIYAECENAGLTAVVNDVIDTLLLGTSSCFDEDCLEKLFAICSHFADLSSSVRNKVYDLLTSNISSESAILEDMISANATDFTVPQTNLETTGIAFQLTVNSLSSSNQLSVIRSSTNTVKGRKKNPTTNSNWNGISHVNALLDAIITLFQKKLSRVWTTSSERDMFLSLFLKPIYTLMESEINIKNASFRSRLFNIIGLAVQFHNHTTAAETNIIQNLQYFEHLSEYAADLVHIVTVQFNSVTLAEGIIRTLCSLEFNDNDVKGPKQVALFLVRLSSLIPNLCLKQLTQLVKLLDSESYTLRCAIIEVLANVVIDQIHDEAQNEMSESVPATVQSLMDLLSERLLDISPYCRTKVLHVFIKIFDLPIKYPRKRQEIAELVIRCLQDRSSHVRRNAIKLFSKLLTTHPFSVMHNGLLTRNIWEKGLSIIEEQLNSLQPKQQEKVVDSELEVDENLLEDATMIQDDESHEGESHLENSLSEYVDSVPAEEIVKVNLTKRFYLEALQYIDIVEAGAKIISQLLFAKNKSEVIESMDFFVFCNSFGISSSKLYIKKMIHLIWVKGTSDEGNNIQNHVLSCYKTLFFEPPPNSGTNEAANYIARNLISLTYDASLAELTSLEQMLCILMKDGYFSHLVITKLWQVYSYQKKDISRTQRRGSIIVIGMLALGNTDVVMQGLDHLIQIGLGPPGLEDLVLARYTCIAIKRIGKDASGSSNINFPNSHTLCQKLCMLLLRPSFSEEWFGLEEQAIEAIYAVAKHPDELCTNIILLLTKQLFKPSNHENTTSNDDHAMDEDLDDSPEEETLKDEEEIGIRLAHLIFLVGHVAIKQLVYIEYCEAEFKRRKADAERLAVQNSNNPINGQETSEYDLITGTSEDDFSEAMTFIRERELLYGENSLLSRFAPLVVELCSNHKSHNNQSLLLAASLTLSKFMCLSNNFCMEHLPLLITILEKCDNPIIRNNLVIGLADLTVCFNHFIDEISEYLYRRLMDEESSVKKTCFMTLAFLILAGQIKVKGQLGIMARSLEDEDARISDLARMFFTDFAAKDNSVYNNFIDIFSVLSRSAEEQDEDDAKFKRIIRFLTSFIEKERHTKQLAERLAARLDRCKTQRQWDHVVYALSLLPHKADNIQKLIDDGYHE
# B1: Cnd3^Ycg1 (fission yeast condensin HEAT-repeat subunit) (natural protein, S. pombe, UniProt Q10429 1-875, looked up)
# chain: MSCIQIISSSQTSIAGHRKLCNKLFTLRTQEGFETDILRALNIILTVKKGNSNADRVLRFLVTFVNYLQQKDPEIDIVQPILKHILRGLDAKDKTVRYRCCQIIARVVNCVKEIDDDLYNTLKEKLLSRVLDRESIVRLEAVVALSRLQEDTGDEENDVRNILLFLLQNDPSSEVRRSVLLNIEVSNSTLPFILERARDVDAANRKCVYARVLPKIGDFRYLSIKKRVRILKWGLNDRDESVEKAAADMLAYQWIENADNNLLELLERLDVSNNSDVAVLAIKKFFDVRVDSLSQLEFPEQFWLELTAESSLLARTFNEICIEKNYTDLLDKMPEVVQLTYYIERQYVSLRDKSSYDESCFIIEQLLYIGLSQDMVDEIGRRKLLKSLTNSLSTMALPDSLISLHIELLRKLCSSENDFCSLLVEIITEVFEQGHSQNQTEEQGNSNAPELNKNDYEGEEITVSQKSPSPSLPPNELNEPEPDDMDGYKEAFNELRCLSYVQCLFENITSSLNENLYMVDMLKTLIIPAVRSHDLPIREKGLECLSLVCLLNADLAFENVPLYLHCYEKGSVVLKCTAIRTLTDMLIQHGKAKFTEYEDAISSILFEALGEFENAELQTLGAEAIAKLLVILHYRDELFLKPLIIQYFEPNTVDNHALRQVLGYFFPVYAFGAHENQWRIATIFCDALLSLLEIYRDLDEDDVQLSIGHIAQQMLDWTDNEKLYERKTQTGDDYIALNHNVHLHLANMIFESLPNASEGKERKFMISLLGKLKIPTDLPSSDYQRTKRKLETYESHGFTMDSTSLSILAKFERMLLQNEEARSKFEETEEERLMENAEENEHAGAEAISGEIIPDTVEANMEDEEEVYVKQEEDL
# notes: Cnd3 (Ycg1), S. pombe condensin HEAT-repeat subunit; cDNA cloned into an S. cerevisiae expression vector; also called Cnd3^CAP-G; source: S. cerevisiae (w303, pep4 deleted), co-overexpressed with the other four condensin subunits from GAL1-10 promoters; in cell extract, and purified as the complex (IgG-agarose, 3C protease elution, heparin, Superose 6)
# What was measured:
# [1] = biological target: T1, Cut14^Smc2 (fission yeast condensin SMC …); assay: cross-linking; sulfo-SDA cross-link mass spectrometry (CLMS) of the purified five-subunit condensin complex with equimolar 124 bp linear dsDNA, no nucleotide (initial state); CL buffer, 30°C 30 min, UV 365 nm on ice; 1% FDR at residue-pair level; conditions: both partners purified
# [2] = biological target: T2, Cnd1^Ycs4 (fission yeast condensin …); assay: cross-linking; sulfo-SDA cross-link mass spectrometry (CLMS) of the purified five-subunit condensin complex with equimolar 124 bp linear dsDNA and 0.5 mM ADP·BeF3 (DNA-gripping state); CL buffer, 30°C 30 min, UV 365 nm on ice; 1% FDR at residue-pair level; conditions: both partners purified
binder,measurement,setting,value
B1,binding result,[1],binds
same,binding result,[2],binds
